Measurements published in the DeepSol protein solubility set.

assay: soluble on expression in E. coli; label from the status in PepcDB or PDB records

Sequence | soluble on expression in E. coli
SEISRQEFQRRRQALVEQMQPGSAALIFAAPEVTRSADSEYPYRQNSDFWYFTGFNEPEAVLVLIKSDDTHNHSVLFNRVRDLTAEIWFGRRLGQDAAPEKLGVDRALAFSEINQQLYQLLNGLDVVYHAQGEYAYADVIVNSALEKLRKGSRQNLTAPATMIDWRPVVHEMRLFKSPEEIAVLRRAGEITAMAHTRAMEKCRPGMFEYHLEGEIHHEFNRHGARYPSYNTIVGSGENGCILHYTENECEMRDGDLVLIDAGCEYKGYAGDITRTFPVNGKFTQAQREIYDIVLESLETSLRLYRPGTSILEVTGEVVRIMVSGLVKLGILKGDVDELIAQNAHRPFFMAGLSHWLGLDVHDVGVYGQDRSRILEPGMVLTVEPGLYIAPDAEVPEQYRGIGIRIEDDIVITETGNENLTASVVKKPEEIEALMVAARKQ | soluble
GSHMLFAEFAEFCERLEKISSTLELTARIAAFLQKIEDERDLYDVVLFITGKVYPPWDERELGVGIGLLYEALENVSGVKRSEIESMIREYGDLGLVAEQLIKKKKMTTLAFEELTVRKVRETFDEIASLTGEGSMKRKIMLLTGLYGLATPLEARYLTRLILNEMRLGVGEGIMRDAIARAFRADPETVERAYMITNDLGRVAVVAKKEGEEGLRKMKIEIHIPVRMMLAQVAESLESAVREMRTAAVEWKFDGSRVQVHWDGSRVTIYSRRLENVTNALPDIVEEIKKSVKPGVILDGEVIAVKEGKPMPFQHVLRRFRRKHDVAKMVEKIPLEAHFFDILYHDGECIDLPLRERRKLLESAVNESEKIKLAKQIVTDSVDEVRKMYDEAISAGHEGVMIKLPSSPYIPGKRGKNWLKVKAIMETLDLVVVGGEWGEGKRSHWLSSFELACLDPVTGKLLKVGRVATGFTEEDLEELTEMFRPLIVSQQGKKVEFIPKYVFEVAYQEIQKSPKYESGYALRFPRFVRLRDDKDVDEADTIERVENLYKLQFEVKRQ | soluble
MLKTAYQRSPKQELAKNTPFFNETDLKHSFIIDFENQEFIHHQAEPLNYLFYLIKGKAKILKTERNGRQSIVQFLTAGDLIGDLTLVQAETITKDVIALGETCCLAVPLAYAETVLKNKVLFMQQLSHYLGKKMLQRVDHFTTNQTYELSYRLAELLLVAANHEDVYKEKHTEIAEYLGVSYRHLIYTFKQFRERGFIQKQGTAYHINRLALHSFVQKMKS | not soluble
MSLERQTLKQKLSTLIQPLQTAKRGAPLTNRTLSATTCQQIESLVTAIEALNPNLSPLLYSPQLLDGNWWLNYSTAREIRSLDKLPLGLKVGRIYQIINVPNQSFLNQAFVYHPLGLAKGYVKVTAKFEIAKPAGTVLPDKRINVEFLERMISIQKLMGVPTPKLDPAKVVPARSPEGRIPFLEITYLDDDLRIGRGGEGSLFVLSKVSEVTPLEHHHHHH | not soluble
MIDKSSKRDKEVEPLKDNISILIMGVDGSEMRKSQYGEAVRTDALLLATINKDDKSVKLVSIPRDSRVYIPSRKKLDKITHAHVFGGVESTRDTVERFLNVPVDYYVKFNFESFVQIVDSLGGIDIDVPVTFTEQDSKDQAGMIHLEKGYQHLNGEQALALARTRKIDSDAMRGQRQQLVIEAIAKKAMSVQSISKMGSLLDAVDKNMKTNLTFDDMLAITKNMAGSNLEMEKMQVEGTDKRIGGIYYYIPNEKNVKDISKKLNEHLGVLEHHHHHH | soluble
MGSDKIHHHHHHMKTERILGALYGQALGDAMGMPSELWPRSRVKAHFGWIDRFLPGPKENNAACYFNRAEFTDDTSMALCLADALLEREGKIDPDLIGRNILDWALRFDAFNKNVLGPTSKIALNAIRDGKPVAELENNGVTNGAAMRVSPLGCLLPARDVDSFIDDVALASSPTHKSDLAVAGAVVIAWAISRAIDGESWSAIVDSLPSIARHAQQKRITTFSASLAARLEIALKIVRNADGTESASEQLYQVVGAGTSTIESVPCAIALVELAQTDPNRCAVLCANLGGDTDTIGAMATAICGALHGVNAIDPALKAELDAVNQLDFNRYATALAKYRQQREAV | not soluble
MSLEESAVPGWVLELLREAGYKSLLPIQEKAFPIIYRGLNALVVAPTGSGKTEAALAPLLARLRNGRVASGGGVKVVYVTPLRALNRDLEGRVERLAGLFGYTVQVRHGDTVQSSRRRFLERPPDIVITTPESLALLLTVKRAKEVLKQARAVVVDEIHELMESKRGVELSLNLEKLELMAGRRLQRIGLSATVSRHSLYRAASLLGAGRHVSMVLDTSPKEYDVRVVVVGDEGRFWENSVKAIAELVKGEGGSVLIFANTRSTVETLAFALSRELGEEVPAHHGSLSRHVRERVERDFKEGRVKAIVATSSLELGIDVGRVALVVQFLSPRQVTAMVQRAGRSGHRFGERSRAVIVTIDNVFEVLESHVIAFRAMKGDLEDISIPKKPYDALAHFMAGAAIDSEPPTLEGVYKLAVSTAPYEDLKMEEVEEIARVLSDVRVIRLGPGGKLGRSSRTYSYFYRVSMIPDEKTFKVHDVVSGRDVGEVGERFIQLRLMKASDPREGHHHHHH | not soluble
MSLTTVGIRGTFFDFVDDPWKHIGNEQAAARFHQDGLMVVTDGVIKAFGPYEKIAAAHPGVEITHIKDRIIVPGFIDGHIHLPQTRVLGAYGEQLLPWLQKSIYPEEIKYKDRNYAREGVKRFLDALLAAGTTTCQAFTSSSPVATEELFEEASRRNMRVIAGLTGIDRNAPAEFIDTPENFYRDSKRLIAQYHDKGRNLYAITPRFAFGASPELLKACQRLKHEHPDCWVNTHISENPAECSGVLVEHPDCQDYLGVYEKFDLVGPKFSGGHGVYLSNNEFRRMSKKGAAVVFCPCSNLFLGSGLFRLGRATDPEHRVKMSFGTDVGGGNRFSMISVLDDAYKVGMCNNTLLDGSIDPSRKDLAEAERNKLSPYRGFWSVTLGGAEGLYIDDKLGNFEPGKEADFVALDPNGGQLAQPWHQSLIADGAGPRTVDEAASMLFAVMMVGDDRCVDETWVMGKRLYKKSEGHHHHHH | soluble
MPSVFEAKGLPSLGPPVSNWGTNQPGTGVARNTRREKLGLWSAVALQQHFTATGGRGGLPLPLSSSALPSQEDRGTAAALGDNAGFSSGAVSSDLRSHLGPAPSLAGRLHKPTLAQRMGLVPGPTPPPSADDWRVITHRALQREHRHARDAGSPGANPSICPICQMSYSTNCDEGQVILSCSHVFHARCFRSFERYVRAQQRADALRIGEVSAPLACPVCRTQSYYKRIFYEGKAVAQRAAIVKVQAAVRGLLARRAYIKIKLQNNPEFRTRYVQERLARLSAAWQTFCAEQEQRRAGLQTALTVQQEMARAAFLSEEAWAEIWRKAVHGPSTSSEPGSSAAPSTAGASVQCPICLELIHCSQCPGTGAAASHAGGVRRLTGKDAVAAMWAAYEARKVAKRLPSVEPKAARASAGALVRSAVKGAAQRKTGNSLTPMPGAVASVRDGKVASSRAPEHRAGRQKGFAQPTAAAPWPEHANAFAALSSAPGVDAVGAHEAAVVLPQSGILLSCGHCFHAACIDCYERFHERRCLDMVEQDGGAVVAFPSRCPVCRSGYAKHPM | not soluble
MFTESPSRAISSYQRVGVESGVVSADPHKLILMLFEGARQALDCSLLYIQQNRIAAKGEMISKAIMIIDHGLKASLDKTAGGELANRLEQLYDYMTARLLTANLQNDAVIIEEISCLLGELHEAWASIGNQPAGKTDVQTATRNTIEDTAGTGAMA | not soluble
MGSDKIHHHHHHKEKKADTYVTKVTDLTGEEEQVLKLEYDRDGKIIKYGDTPVRYEGDQITIGQMNCLNTGNKLCNVTFQIGKGKARESRARCMLKVGEEVYEADKQTVYDYKGDTIFINSDYRATSDYRFLKKVQGKYVFDQLGRLKEVMTVFTEANDSVSSCHTYYNYDNNINYQANLNLQAYVIDYDGVDSFFYFLLNLGQLRNRTALPNDIGYCMNHGLSTYNVHANYRLDDENPVRIEVLYNYTKLLSRIDLSYNPLN | not soluble
